System: peptide library, one residue held at a place counted from the S/T acceptor
Assay: relative phosphorylation of the sub-library (ratio to the mean residue at this position); higher = residue favoured
Settings: human
Method in brief: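 Relative sub-library phosphorylation, a ratio to the mean residue at that position, was obtained by phosphorimaging and densitometry of spots on streptavidin membranes. Before capture, purified recombinant kinases were incubated for 90 min under kinase-specific conditions with 50 μM biotinylated degenerate peptide sub-libraries and 50 μM ATP spiked with γ-32P-ATP. Each sub-library fixed one residue at one position around a central Ser/Thr.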

HIPK2, construct: aa153-564, sequence (Q9H2X6 153-564, looked up): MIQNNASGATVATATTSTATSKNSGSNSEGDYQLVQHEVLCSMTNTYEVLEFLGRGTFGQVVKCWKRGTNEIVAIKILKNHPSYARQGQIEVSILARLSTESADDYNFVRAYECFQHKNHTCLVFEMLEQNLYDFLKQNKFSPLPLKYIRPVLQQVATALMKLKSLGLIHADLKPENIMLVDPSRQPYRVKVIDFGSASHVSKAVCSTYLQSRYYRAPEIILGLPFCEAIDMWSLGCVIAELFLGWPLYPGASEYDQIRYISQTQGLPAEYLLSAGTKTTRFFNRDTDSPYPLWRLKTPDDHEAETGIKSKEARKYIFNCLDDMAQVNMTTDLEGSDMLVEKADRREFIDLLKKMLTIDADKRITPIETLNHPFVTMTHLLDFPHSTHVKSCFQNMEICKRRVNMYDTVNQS
FAM20C, construct: aa23-end, sequence (Q8IXL6 23-584, looked up): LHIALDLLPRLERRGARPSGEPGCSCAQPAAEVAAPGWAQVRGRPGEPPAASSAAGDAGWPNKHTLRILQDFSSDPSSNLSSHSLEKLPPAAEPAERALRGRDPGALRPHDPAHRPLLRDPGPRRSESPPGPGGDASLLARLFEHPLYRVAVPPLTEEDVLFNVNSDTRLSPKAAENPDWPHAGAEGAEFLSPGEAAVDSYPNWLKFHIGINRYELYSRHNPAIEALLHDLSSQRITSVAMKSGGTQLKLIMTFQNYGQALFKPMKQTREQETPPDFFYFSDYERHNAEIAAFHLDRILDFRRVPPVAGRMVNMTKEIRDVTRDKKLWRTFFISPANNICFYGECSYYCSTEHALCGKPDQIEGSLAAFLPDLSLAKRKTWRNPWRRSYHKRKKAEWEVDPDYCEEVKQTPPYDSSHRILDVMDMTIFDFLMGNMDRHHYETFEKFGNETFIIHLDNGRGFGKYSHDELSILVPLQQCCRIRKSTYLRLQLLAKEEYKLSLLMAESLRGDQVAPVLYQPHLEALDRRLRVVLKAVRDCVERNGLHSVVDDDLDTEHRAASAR

FAM20C, construct: aa23-end (from UniProt Q8IXL6)
relative phosphorylation
Settings | at +1 | at +2 | at +3 | at +4 | at -1 | at -2 | at -3 | at -4 | at -5
A fixed | 1.77 | 0.243 | 0.795 | 0.935 | 1.27 | 1.28 | 0.91 | 1.14 | 1.14
D fixed | 1.03 | 0.708 | 2.21 | 1.67 | 2.77 | 1.99 | 1.61 | 1.68 | 1.46
E fixed | 2.15 | 13 | 2.58 | 1.91 | 1.4 | 1.19 | 1.66 | 1.52 | 1.31
F fixed | 0.537 | 0.173 | 0.624 | 0.825 | 0.423 | 0.95 | 0.693 | 0.737 | 1.04
G fixed | 1.61 | 0.214 | 0.518 | 1.45 | 1.31 | 1.28 | 1.45 | 1.26 | 1.05
H fixed | 1.39 | 0.25 | 0.863 | 0.874 | 1.29 | 1.08 | 0.95 | 1.02 | 1.43
I fixed | 0.52 | 0.155 | 1.13 | 1.02 | 0.468 | 0.663 | 0.619 | 0.789 | 0.751
K fixed | 0.822 | 0.185 | 0.516 | 0.607 | 0.589 | 0.647 | 0.719 | 0.745 | 0.896
L fixed | 0.54 | 0.159 | 1.07 | 0.788 | 0.485 | 0.581 | 0.968 | 0.826 | 0.832
M fixed | 1.11 | 0.205 | 0.884 | 0.92 | 0.555 | 0.673 | 0.851 | 0.887 | 0.761
N fixed | 1.08 | 0.277 | 0.845 | 0.806 | 2.19 | 1.8 | 1.2 | 1.08 | 1.14
P fixed | 0.253 | 0.18 | 0.252 | 0.777 | 0.303 | 1.11 | 1.01 | 1.06 | 0.843
Q fixed | 1.26 | 0.454 | 1.17 | 0.863 | 0.934 | 0.809 | 1.07 | 0.997 | 0.907
R fixed | 0.958 | 0.2 | 0.603 | 0.571 | 0.685 | 0.612 | 0.918 | 0.75 | 0.809
V fixed | 0.618 | 0.179 | 1.36 | 1.02 | 0.808 | 0.701 | 0.682 | 0.876 | 0.959
W fixed | 0.696 | 0.208 | 0.831 | 1.05 | 0.839 | 0.795 | 0.861 | 0.895 | 1.01
Y fixed | 0.65 | 0.199 | 0.76 | 0.913 | 0.681 | 0.851 | 0.835 | 0.736 | 0.66
pThr fixed | 0.641 | 0.744 | 1.28 | 3.06 | 0.797 | 1.09 | 1.49 | 1.38 | 1.05
pTyr fixed | 0.699 | 1.02 | 2.15 | 2.74 | 1.08 | 1.96 | 1.64 | 1.1 | 1.19

HIPK2, construct: aa153-564 (from UniProt Q9H2X6)
relative phosphorylation
Settings | at +1 | at +2 | at +3 | at +4 | at -1 | at -2 | at -3 | at -4 | at -5
A fixed | 0.477 | 1.23 | 0.93 | 0.869 | 1.32 | 2.32 | 0.857 | 1.07 | 1.08
D fixed | 0.109 | 0.923 | 0.689 | 0.906 | 0.483 | 0.281 | 0.703 | 0.956 | 0.993
E fixed | 0.125 | 0.509 | 0.582 | 0.75 | 0.514 | 0.284 | 0.592 | 1 | 0.893
F fixed | 0.151 | 1.2 | 0.766 | 1.12 | 0.482 | 0.32 | 0.261 | 0.575 | 0.814
G fixed | 0.628 | 1.64 | 1.4 | 1.16 | 1.16 | 0.943 | 1.33 | 1.24 | 1.09
H fixed | 0.224 | 1.34 | 1.08 | 1.01 | 0.948 | 0.387 | 0.658 | 0.899 | 1.09
I fixed | 0.225 | 0.631 | 0.649 | 0.95 | 0.397 | 0.66 | 0.279 | 0.562 | 0.686
K fixed | 0.284 | 1.2 | 0.738 | 1.04 | 1.98 | 0.671 | 1.2 | 1.05 | 1.1
L fixed | 0.189 | 0.634 | 0.803 | 0.839 | 0.578 | 0.621 | 0.361 | 0.69 | 0.754
M fixed | 0.183 | 0.765 | 0.742 | 0.901 | 0.782 | 0.543 | 0.326 | 0.72 | 0.652
N fixed | 0.235 | 1.02 | 0.953 | 0.878 | 0.843 | 0.739 | 0.784 | 0.887 | 0.971
P fixed | 11.5 | 1.46 | 3.51 | 1.06 | 1.95 | 4.16 | 1.06 | 2.04 | 1.49
Q fixed | 0.251 | 0.766 | 0.971 | 1.11 | 1.35 | 0.569 | 0.821 | 0.977 | 0.993
R fixed | 1.6 | 1.22 | 0.914 | 0.993 | 2.33 | 2.9 | 6.74 | 2.38 | 1.72
V fixed | 0.481 | 0.722 | 0.677 | 1.01 | 0.65 | 0.949 | 0.34 | 0.574 | 0.716
W fixed | 0.161 | 0.951 | 0.852 | 1.3 | 0.624 | 0.304 | 0.348 | 0.655 | 0.782
Y fixed | 0.163 | 0.79 | 0.741 | 1.11 | 0.604 | 0.347 | 0.35 | 0.727 | 1.16
pThr fixed | 0.283 | 0.441 | 0.615 | 0.816 | 0.423 | 1.04 | 0.734 | 1.27 | 1.23
pTyr fixed | 0.251 | 0.431 | 0.989 | 1.15 | 0.614 | 0.375 | 0.628 | 1.01 | 1.19

Source: the supplement of paper PMC9876800
